Assay results published in paper PMC12444563 (ACS Omega, 2025).
Starred links: 1 amine or outer side, 2 acyl side, 3 side chain; linkers in the order of their positions; H or OH if unused. Non-standard residues stand in square brackets, D forms with d. Residues, ends and D or L forms follow the SMILES beside them. *: point of attachment. Paclitaxel(2'-OCO-DMEDA) = CC(=O)O[C@H]1C(=O)[C@@]2(C)[C@H]([C@H](OC(=O)c3ccccc3)[C@]3(O)C[C@H](OC(=O)[C@H](OC(=O)N(C)CCN(C)*)[C@@H](NC(=O)c4ccccc4)c4ccccc4)C(C)=C1C3(C)C)[C@]1(OC(C)=O)CO[C@@H]1C[C@@H]2O; Fmoc = O=C(OCC1c2ccccc2-c2ccccc21)*; PABC = O=C(OCc1ccc(N[*:1])cc1)[*:2]

What was measured:
[1] = Liver S9 fraction stability assay, rat; format: in vitro ADME; details: 37 °C; for remaining at 0.5 h, 1 μM / remaining at 1.5 h, 1 μM: male, liver S9 fraction, read-out: S9 stability (matrix: rat) % remaining; for remaining at 0.5 h, 1 μM: 30 min
Method: (§1) The plasma stability assays were performed by Selvita SA (Krakow, Poland) following the protocol described in the Supporting Information. For the use of human plasma, consent was obtained from the subject or from the next of kin.
(§2) 9. Plasma stability assays […]
(§3) Protocol for S9 fraction: a stock solution of compounds 1-4 in DMSO was incubated in human (male, pooled, commercially obtained from Xeno-tech lot: 2310104) and rat (male, pooled, commercially obtained from Xeno-tech (lot: 2210317)) S9 fraction at a final concentration of 1 μM (final concentration of DMSO = 0.5 %). The samples were incubated at 37 °C with a shaking of 450 rpm.
(§4) Aliquots of the samples were analyzed at time 0, 30 and 90 minutes by LC-MS/MS analysis.
(§5) The areas of the peak of the compounds 1-4 in the LC chromatogram were used to evaluate stability profile. The percentage of residual compounds 1-4 was calculated as the ratio between the area of the peak of the analyte and the area of the internal standard.
(§6) % residual compound = Area analyte ∙ 100
(§7) Table S7. LC-MS data of the stability assays in plasma extracts of compound 1.
(§8) Stability assays compound 1
(§9) Time Plasma stability Plasma stability S9 stability S9 stability
(§10) (min.) (matrix: rat) (matrix: human) Time (min.) (matrix: rat) (matrix: human) % remaining % remaining % remaining % remaining
(§11) Table S8. LC-MS data of the stability assays in plasma extracts of compound 2.
(§12) Stability assays compound 2

[2] = Liver S9 fraction stability assay, human; format: in vitro ADME; details: 37 °C; for remaining at 0.5 h, 1 μM / remaining at 1.5 h, 1 μM: male, liver S9 fraction, read-out: S9 stability (matrix: human) % remaining; for remaining at 0.5 h, 1 μM: 30 min
Method: as §1, §2, §3, §4, §5, §6, §7, §8, §9, §10, §11, §12

[3] = target: T1, bovine spleen Cathepsin B (Bos taurus, UniProt P07688); assay: Preliminary Cathepsin B cleavage assay for protocol validation, HPLC vs UHPLC-HRMS; format: biochemical; details: for % residual compound, HRMS: UHPLC-HRMS (Orbitrap) detection; for % residual compound, HPLC: analytical HPLC detection
T1 construct: bovine spleen Cathepsin B (SigmaAldrich C6286, ≥10 units/mg protein); purchased SigmaAldrich C6286; host or cells: bovine spleen (tissue-derived)
Method: The Cathepsin B cleavage assay was performed by incubating compounds 1–4 at 37 °C under gently shaking conditions in the presence of the active form of Cathepsin B. More specifically, 122.4 μL of an enzyme-activating solution (composed of 7.48 mg of L-cysteine dissolved in 2 mL of a buffer solution containing 20 mM NaOAc, 1 mM EDTA, pH 5.4 to give a final cysteine concentration of 30.88 mM) was mixed with 12.6 μL of enzyme stock solution, previously prepared by solubilization of bovine spleen Cathepsin B (SigmaAldrich C6286, ≥10 units/mg protein) in 1 mL of buffer solution (without cysteine) to give a concentration of enzyme stock solution of 12 units/mL. After the dilution, the final concentration of Cathepsin B was 1.12 u/mL. Then, the diluted enzyme solution was incubated at 37 °C for 15 min to activate Cathepsin B. After 15 min, 6 μL of 117 μM compound solution, previously prepared by diluting 5.85 μL of 1 mM stock solution of the compound in 44.15 μL of dry DMSO (giving a 117 μM solution), was added to the test tube and the cleavage assay solution was incubated at 37 °C under gentle shaking conditions. Sample aliquots (10 μL) were taken out at 15, 30 min, and 1, 2, 4, and 24 h and quenched with 10 μL of MeOH+1% formic acid. The solutions were then centrifuged for 10 min at 6000 rpm. Blank solutions were prepared for each compound by dilution of 6 μL of a 117 μM compound solution into 135 μL of an enzyme-activating solution. UHPLC-MS analyses were carried out using a Vanquish UHPLC System (Thermo Fisher Scientific) and Orbitrap Exploris 120 (Thermo Fisher Scientific). Thermo Scientific Xcalibur software was used to control the instruments and acquire the data. Freestyle 1.8 software was used for processing the data. UHPLC chromatographic separations were performed on a reversed-phase column Accucore C18 50 × 2.1 mm, 2.6 μm (Thermo Fisher Scientific). A gradient system was used with the mobile phase consisting of solvent A: H2O + 0.05% formic acid and solvent B: acetonitrile. The areas of the peak of compounds 1–4 in the extracted ion chromatogram were used to evaluate the kinetics of the cleavage process. The percentage of residual compound was calculated as the ratio between the areas of the peak of the full compound at the desired time point and in the blank analysis. %Residualcompound=areacompoundatthedesiredtimepoint/areacompoundintheblanksolution×100
Based on the similarity of the Cathepsin B recognized sequence GFLG to GPLG, we inferred that the latter could also be recognized by the same lysosomal enzyme. Therefore, a Cathepsin B cleavage assay for compound 1 was planned, and the experiment was designed to focus on a short incubation time (up to 4 h) to better mimic the fast transient and dynamic environment of drug clearance and activation generally occurring in in vivo conditions. An Orbitrap mass analyzer was chosen to analyze the final incubated solution due to its higher sensitivity compared to traditional HPLC methods, thereby allowing precise evaluation of the drug release kinetics even at low compound concentrations. At first, to validate the designed Orbitrap-protocol over the HPLC protocols generally reported in the literature, we initially performed the cleavage assay on compound 4 containing the VA sequence, for which the recognition by the Cathepsin B enzyme is well documented. ,− For instance, compound 4 was incubated at 37 °C with a sodium acetate buffer solution (final concentration of 4: 5 μM) containing the active form of the Cathepsin B enzyme, and diluted aliquots at 0–30–60–120 and 240 min were collected and analyzed by a UHPLC-Orbitrap instrument and, in parallel, by analytical HPLC. As shown in Figure S26 of the Supporting Information, the degradation of the VA-based compound 4 can be appreciated from both analyses; however, an expected remarkable difference between the two methods was noted regarding the final concentration of the compound 4 at the end of the experiment. […]

CC(=O)O[C@H]1C(=O)[C@@]2(C)[C@H]([C@H](OC(=O)c3ccccc3)[C@]3(O)C[C@H](OC(=O)[C@H](OC(=O)N(C)CCN(C)C(=O)OCc4ccc(NC(=O)[C@H](CCCNC(N)=O)NC(=O)[C@@H](NC(=O)OCC5c6ccccc6-c6ccccc65)C(C)C)cc4)[C@@H](NC(=O)c4ccccc4)c4ccccc4)C(C)=C1C3(C)C)[C@]1(OC(C)=O)CO[C@@H]1C[C@@H]2O [Compound 3, Fmoc-VCit-PABC-diamine-PTX]
remaining at 0.5 h, 1 μM [1]: 86.5% | remaining at 1.5 h, 1 μM ([1]; 90 min (1.5 h)): 42.6% | remaining at 0.5 h, 1 μM [2]: 133% | remaining at 1.5 h, 1 μM ([2]; 90 min (1.5 h)): 95.2%

CC(=O)O[C@H]1C(=O)[C@@]2(C)[C@H]([C@H](OC(=O)c3ccccc3)[C@]3(O)C[C@H](OC(=O)[C@H](OC(=O)N(C)CCN(C)C(=O)OCc4ccc(NC(=O)CNC(=O)[C@H](CC(C)C)NC(=O)[C@@H]5CCCN5C(=O)CNC(=O)OCC5c6ccccc6-c6ccccc65)cc4)[C@@H](NC(=O)c4ccccc4)c4ccccc4)C(C)=C1C3(C)C)[C@]1(OC(C)=O)CO[C@@H]1C[C@@H]2O [Compound 1, Fmoc-GPLG-PABC-diamine-PTX] (Fmoc-GPLG[PABC]-{Paclitaxel(2'-OCO-DMEDA)})
remaining at 0.5 h, 1 μM ([1]; rat): 88.8% | remaining at 1.5 h, 1 μM ([1]; rat, 90 min (1.5 h)): 94.5% | remaining at 0.5 h, 1 μM ([2]; human): 104% | remaining at 1.5 h, 1 μM ([2]; human, 90 min (1.5 h)): 95%

CC(=O)O[C@H]1C(=O)[C@@]2(C)[C@H]([C@H](OC(=O)c3ccccc3)[C@]3(O)C[C@H](OC(=O)[C@H](OC(=O)N(C)CCN(C)C(=O)OCc4ccc(NC(=O)CNC(=O)[C@H](CC(C)C)NC(=O)[C@H](Cc5ccccc5)NC(=O)CNC(=O)OCC5c6ccccc6-c6ccccc65)cc4)[C@@H](NC(=O)c4ccccc4)c4ccccc4)C(C)=C1C3(C)C)[C@]1(OC(C)=O)CO[C@@H]1C[C@@H]2O [Compound 2, Fmoc-GFLG-PABC-diamine-PTX] (Fmoc-GFLG[PABC]-{Paclitaxel(2'-OCO-DMEDA)})
remaining at 0.5 h, 1 μM ([1]; rat): 72.8% | remaining at 1.5 h, 1 μM ([1]; rat, 90 min (1.5 h)): 61.8% | remaining at 0.5 h, 1 μM ([2]; human): 133% | remaining at 1.5 h, 1 μM ([2]; human, 90 min (1.5 h)): 95.2%

CC(=O)O[C@H]1C(=O)[C@@]2(C)[C@H]([C@H](OC(=O)c3ccccc3)[C@]3(O)C[C@H](OC(=O)[C@H](OC(=O)N(C)CCN(C)C(=O)OCc4ccc(NC(=O)[C@H](C)NC(=O)[C@@H](NC(=O)OCC5c6ccccc6-c6ccccc65)C(C)C)cc4)[C@@H](NC(=O)c4ccccc4)c4ccccc4)C(C)=C1C3(C)C)[C@]1(OC(C)=O)CO[C@@H]1C[C@@H]2O [Compound 4, Fmoc-VA-PABC-diamine-PTX]
% residual compound, HRMS ([3]; 30 min with Cathepsin B): 73.35% | % residual compound, HRMS ([3]; 60 min with Cathepsin B): 68.45% | % residual compound, HRMS ([3]; 120 min with Cathepsin B): 65.40% | % residual compound, HRMS ([3]; 240 min (4 h) with Cathepsin B): 63.70% | % residual compound, HPLC ([3]; 30 min with Cathepsin B): 25.11% | % residual compound, HPLC ([3]; 60 min with Cathepsin B): 20.48% | % residual compound, HPLC ([3]; 120 min with Cathepsin B): 13.68% | S9 stability (matrix: rat) % remaining ([1]; 1 μM, 90 min (1.5 h)): 81.17% | remaining at 0.5 h, 1 μM ([1]; rat): 81.1% | remaining at 1.5 h, 1 μM ([1]; rat, 90 min (1.5 h)): 81.2% | S9 stability (matrix: human) % remaining ([2]; 1 μM, 90 min (1.5 h)): 79.75% | remaining at 0.5 h, 1 μM ([2]; human): 107% | remaining at 1.5 h, 1 μM ([2]; human, 90 min (1.5 h)): 79.7%
